Reference: US20150276762A1 (NVH MEDICINAL, published 2015)

Key:
[1] = target: plasma von Willebrand factor of type 2 von Willebrand disease patients (Table I) (human) (UniProt P04275); experiment: ELISA, coated at 2 µg/ml, plasma of Patient 7 (Type 2)
[2] = target: plasma von Willebrand factor of type 1 von Willebrand disease patients (human) (UniProt P04275); experiment: ELISA, coated at 2 µg/ml, plasma of Patient 5 (Type 1)
[3] = target: plasma von Willebrand factor of type 2 von Willebrand disease patients (Table I) (human) (UniProt P04275); experiment: ELISA, coated at 2 µg/ml, plasma of Patient 6 (Type 2)
[4] = target: plasma von Willebrand factor of type 1 von Willebrand disease patients (human) (UniProt P04275); experiment: ELISA, coated at 2 µg/ml, plasma of Patient 5 (Type 1); collagen-binding activity over vWF antigen
[5] = target: plasma von Willebrand factor of type 2 von Willebrand disease patients (Table I) (human) (UniProt P04275); experiment: ELISA, coated at 2 µg/ml, plasma of Patient 6 (Type 2); collagen-binding activity over vWF antigen
[6] = target: plasma von Willebrand factor of type 2 von Willebrand disease patients (Table I) (human) (UniProt P04275); experiment: ELISA, coated at 2 µg/ml, plasma of Patient 8 (Type 2)
[7] = target: plasma von Willebrand factor of type 1 von Willebrand disease patients (human) (UniProt P04275); experiment: ELISA, coated at 2 µg/ml, plasma of Patient 4 (Type 1); collagen-binding activity over vWF antigen
[8] = target: plasma von Willebrand factor of type 2 von Willebrand disease patients (Table I) (human) (UniProt P04275); experiment: ELISA, coated at 2 µg/ml, plasma of Patient 7 (Type 2); collagen-binding activity over vWF antigen
[9] = target: plasma von Willebrand factor of type 2 von Willebrand disease patients (Table I) (human) (UniProt P04275); experiment: ELISA, coated at 2 µg/ml, plasma of Patient 8 (Type 2); collagen-binding activity over vWF antigen
[10] = target: plasma von Willebrand factor of type 1 von Willebrand disease patients (human) (UniProt P04275); experiment: ELISA, coated at 2 µg/ml, plasma of Patient 4 (Type 1)
[11] = target: plasma von Willebrand factor of type 1 von Willebrand disease patients (human) (UniProt P04275); experiment: ELISA, coated at 2 µg/ml, plasma of Patient 3 (Type 1); collagen-binding activity over vWF antigen
[12] = target: plasma von Willebrand factor of type 1 von Willebrand disease patients (human) (UniProt P04275); experiment: ELISA, coated at 2 µg/ml, plasma of Patient 3 (Type 1)
[13] = target: T1, plasma von Willebrand factor of healthy patients / control (reference) plasma (human, UniProt P04275 764-2813); experiment: ELISA, coated at 2 µg/ml, plasma of Patient 2 (Normal); collagen-binding activity over vWF antigen
T1 construct: Unpurified, in diluted plasma; The read-out also depends on the amount of vWF in the plasma; also called Normal; Controls
Method: (§1) To that end, 100 μl of a solution containing the polypeptide at 2 or 10 μg/ml in phosphate buffer or any other suitable buffer is added in each well and incubated at 22° C. for 18 to 20 hours. After three washes with 200 μl of PBS-0.05% Tween, 200 μl of 1% BSA in phosphate buffer solution (Euromedex, 0.45 μm filter) is added in each well and incubated for 2 hours at room temperature (22° C.). After three washes with 200 μl of PBS-0.05% Tween, 100 μl of various concentrations (expressed in IU/dl) of purified von Willebrand factor (Wilfactin, 100 IU/ml, LFB) and/or of patient plasma diluted in phosphate buffer or any other suitable buffer is incubated for 1.5 hours at room temperature (22° C.). After three new washes, 100 μl of a solution containing a primary anti-vWF antibody coupled with horseradish peroxidase (rabbit anti-human vWF/HRP, DAKO) diluted to 1/8000 in phosphate buffer or any other suitable buffer is incubated for 1 hour at 22° C. and then washed 4 times as described above. 125 μl of tetramethylbenzidine solution (TMB, Sigma) as peroxidase substrate is added and then incubation is carried out in the dark for 10 to a maximum of 45 minutes. The reaction is quenched by adding 125 μl of 2 N HCl (Sigma). Absorbance is quickly measured at 450 nm in a spectrophotometer (Wallac Victor 3). […]

[14] = target: T2, plasma von Willebrand factor of a patient suspected of having anti-vWF antibody (mimicking type III) (human, UniProt P04275 764-2813, limits assumed); experiment: ELISA, coated at 2 µg/ml, plasma of Patient 9 (vWF activity); collagen-binding activity over vWF antigen
T2 construct: Almost no vWF antigen in this plasma; also called Patient 9; vWF activity
Method: as §1

[15] = target: T1, plasma von Willebrand factor of healthy …; experiment: ELISA, coated at 2 µg/ml, plasma of Patient 1 (Normal); collagen-binding activity over vWF antigen
Method: as §1

Row | Mean CB % [1] [%] | Mean CB % [2] [%] | Mean CB % [3] [%] | CB/Ag ratio [4] | CB/Ag ratio [5] | Mean CB % [6] [%] | CB/Ag ratio [7] | CB/Ag ratio [8] | CB/Ag ratio [9] | Mean CB % [10] [%] | CB/Ag ratio [11] | Mean CB % [12] [%] | CB/Ag ratio [13] | CB/Ag ratio [14] | CB/Ag ratio [15] | Molecule
1 | 19 | 17 | 17 | 0.77 | 0.74 | 24 | 1.41 | 0.48 | 0.89 | 24 | 0.82 | 37 |  |  |  | type III collagen (BD Biosciences), used as a reference (from UniProt P02461 154-1221)
2 |  |  |  |  |  |  |  |  |  |  |  |  | 1.22 | 0 | 1.4 | type III collagen (BD Biosciences), used as a reference (other, human, UniProt P02461 154-1221, looked up, also called native type III collagen) QYDSYDVKSGVAVGGLAGYPGPAGPPGPPGPPGTSGHPGSPGSPGYQGPPGEPGQAGPSGPPGPPGAIGPSGPAGKDGESGRPGRPGERGLPGPPGIKGPAGIPGFPGMKGHRGFDGRNGEKGETGAPGLKGENGLPGENGAPGPMGPRGAPGERGRPGLPGAAGARGNDGARGSDGQPGPPGPPGTAGFPGSPGAKGEVGPAGSPGSNGAPGQRGEPGPQGHAGAQGPPGPPGINGSPGGKGEMGPAGIPGAPGLMGARGPPGPAGANGAPGLRGGAGEPGKNGAKGEPGPRGERGEAGIPGVPGAKGEDGKDGSPGEPGANGLPGAAGERGAPGFRGPAGPNGIPGEKGPAGERGAPGPAGPRGAAGEPGRDGVPGGPGMRGMPGSPGGPGSDGKPGPPGSQGESGRPGPPGPSGPRGQPGVMGFPGPKGNDGAPGKNGERGGPGGPGPQGPPGKNGETGPQGPPGPTGPGGDKGDTGPPGPQGLQGLPGTGGPPGENGKPGEPGPKGDAGAPGAPGGKGDAGAPGERGPPGLAGAPGLRGGAGPPGPEGGKGAAGPPGPPGAAGTPGLQGMPGERGGLGSPGPKGDKGEPGGPGADGVPGKDGPRGPTGPIGPPGPAGQPGDKGEGGAPGLPGIAGPRGSPGERGETGPPGPAGFPGAPGQNGEPGGKGERGAPGEKGEGGPPGVAGPPGGSGPAGPPGPQGVKGERGSPGGPGAAGFPGARGLPGPPGSNGNPGPPGPSGSPGKDGPPGPAGNTGAPGSPGVSGPKGDAGQPGEKGSPGAQGPPGAPGPLGIAGITGARGLAGPPGMPGPRGSPGPQGVKGESGKPGANGLSGERGPPGPQGLPGLAGTAGEPGRDGNPGSDGLPGRDGSPGGKGDRGENGSPGAPGAPGHPGPPGPVGPAGKSGDRGESGPAGPAGAPGPAGSRGAPGPQGPRGDKGETGERGAAGIKGHRGFPGNPGAPGSPGPAGQQGAIGSPGPAGPRGPVGPSGPPGKDGTSGHPGPIGPPGPRGNRGERGSEGSPGHPGQPGPPGPPGAPGPCCGGVGAAAIAGIGGEKAGGFAPYYG
